Source: patent publication US20140087995A1 (published 2014)
Numbered stars: 1 amine (or outer) side, 2 acyl side, 3 side chain; on linkers, the order of the positions; unused ones are H or OH. Bridge positions count the residues as written; N and C are the ends. Side chains are listed from the residue outwards. Ends that are not written are not given here. * marks the point of attachment. C20 diacid = O=C(O)CCCCCCCCCCCCCCCCCCC(=O)*; γGlu = O=C(O)[C@H](CCC(=O)[*:2])N[*:1]; AEEA = NCCOCCOCC(=O)O

T1: human calcitonin receptor (human, UniProt P30988 25-474)
T1 sequence (looked up): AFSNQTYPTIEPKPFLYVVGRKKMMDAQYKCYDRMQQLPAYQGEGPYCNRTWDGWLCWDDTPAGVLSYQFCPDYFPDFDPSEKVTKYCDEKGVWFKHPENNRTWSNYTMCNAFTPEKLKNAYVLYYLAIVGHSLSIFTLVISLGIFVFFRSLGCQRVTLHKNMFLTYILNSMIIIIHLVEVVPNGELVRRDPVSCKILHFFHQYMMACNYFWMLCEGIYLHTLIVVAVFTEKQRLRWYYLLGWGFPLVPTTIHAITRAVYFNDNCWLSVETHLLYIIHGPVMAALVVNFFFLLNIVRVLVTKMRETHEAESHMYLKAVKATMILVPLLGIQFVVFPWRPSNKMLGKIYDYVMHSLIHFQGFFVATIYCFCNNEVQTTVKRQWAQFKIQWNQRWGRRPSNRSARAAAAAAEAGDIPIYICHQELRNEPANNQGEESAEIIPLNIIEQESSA

B1: N^ε1-[2-[2-[2-[[(4S)-4-carboxy-4-(19-carboxynonadecanoylamino)butanoyl]amino]ethoxy]ethoxy]acetyl]-[His14,Arg17,Pro21,Pro27,Arg34]-h-amylin (peptide)
peptide: K([AEEA-γGlu-C20 diacid])CNTATCATQRLAHFLRHSSPNFGAIPSSTNVGRNTY-NH2
modifications: disulfide 2-7; N-terminus assumed
SMILES: CC[C@H](C)[C@H](NC(=O)[C@H](C)NC(=O)CNC(=O)[C@H](Cc1ccccc1)NC(=O)[C@H](CC(N)=O)NC(=O)[C@@H]1CCCN1C(=O)[C@H](CO)NC(=O)[C@H](CO)NC(=O)[C@H](Cc1c[nH]cn1)NC(=O)[C@H](CCCNC(=N)N)NC(=O)[C@H](CC(C)C)NC(=O)[C@H](Cc1ccccc1)NC(=O)[C@H](Cc1c[nH]cn1)NC(=O)[C@H](C)NC(=O)[C@H](CC(C)C)NC(=O)[C@H](CCCNC(=N)N)NC(=O)[C@H](CCC(N)=O)NC(=O)[C@@H](NC(=O)[C@H](C)NC(=O)[C@@H]1CSSC[C@H](NC(=O)[C@@H](N)CCCCNC(=O)COCCOCCNC(=O)CC[C@H](NC(=O)CCCCCCCCCCCCCCCCCCC(=O)O)C(=O)O)C(=O)N[C@@H](CC(N)=O)C(=O)N[C@@H]([C@@H](C)O)C(=O)N[C@@H](C)C(=O)N[C@@H]([C@@H](C)O)C(=O)N1)[C@@H](C)O)C(=O)N1CCC[C@H]1C(=O)N[C@@H](CO)C(=O)N[C@@H](CO)C(=O)N[C@H](C(=O)N[C@@H](CC(N)=O)C(=O)N[C@H](C(=O)NCC(=O)N[C@@H](CCCNC(=N)N)C(=O)N[C@@H](CC(N)=O)C(=O)N[C@H](C(=O)N[C@@H](Cc1ccc(O)cc1)C(N)=O)[C@@H](C)O)C(C)C)[C@@H](C)O
notes: also called compound 84
B2: N^ε1-[2-[2-[2-[[(4S)-4-carboxy-4-(19-carboxynonadecanoylamino)butanoyl]amino]ethoxy]ethoxy]acetyl]-[His14,Arg17,Pro21,Pro27,Pro31]-h-amylin (peptide)
peptide: K([AEEA-γGlu-C20 diacid])CNTATCATQRLAHFLRHSSPNFGAIPSSTPVGSNTY-NH2
modifications: disulfide 2-7; N-terminus assumed
SMILES: CC[C@H](C)[C@H](NC(=O)[C@H](C)NC(=O)CNC(=O)[C@H](Cc1ccccc1)NC(=O)[C@H](CC(N)=O)NC(=O)[C@@H]1CCCN1C(=O)[C@H](CO)NC(=O)[C@H](CO)NC(=O)[C@H](Cc1c[nH]cn1)NC(=O)[C@H](CCCNC(=N)N)NC(=O)[C@H](CC(C)C)NC(=O)[C@H](Cc1ccccc1)NC(=O)[C@H](Cc1c[nH]cn1)NC(=O)[C@H](C)NC(=O)[C@H](CC(C)C)NC(=O)[C@H](CCCNC(=N)N)NC(=O)[C@H](CCC(N)=O)NC(=O)[C@@H](NC(=O)[C@H](C)NC(=O)[C@@H]1CSSC[C@H](NC(=O)[C@@H](N)CCCCNC(=O)COCCOCCNC(=O)CC[C@H](NC(=O)CCCCCCCCCCCCCCCCCCC(=O)O)C(=O)O)C(=O)N[C@@H](CC(N)=O)C(=O)N[C@@H]([C@@H](C)O)C(=O)N[C@@H](C)C(=O)N[C@@H]([C@@H](C)O)C(=O)N1)[C@@H](C)O)C(=O)N1CCC[C@H]1C(=O)N[C@@H](CO)C(=O)N[C@@H](CO)C(=O)N[C@H](C(=O)N1CCC[C@H]1C(=O)N[C@H](C(=O)NCC(=O)N[C@@H](CO)C(=O)N[C@@H](CC(N)=O)C(=O)N[C@H](C(=O)N[C@@H](Cc1ccc(O)cc1)C(N)=O)[C@@H](C)O)C(C)C)[C@@H](C)O
notes: also called compound 61
B3: N^ε1-[2-[2-[2-[[(4S)-4-carboxy-4-(19-carboxynonadecanoylamino)butanoyl]amino]ethoxy]ethoxy]acetyl]-[His14,Arg17,Pro21,Pro27,Pro34]-h-amylin (peptide)
peptide: K([AEEA-γGlu-C20 diacid])CNTATCATQRLAHFLRHSSPNFGAIPSSTNVGPNTY-NH2
modifications: disulfide 2-7; N-terminus assumed
SMILES: CC[C@H](C)[C@H](NC(=O)[C@H](C)NC(=O)CNC(=O)[C@H](Cc1ccccc1)NC(=O)[C@H](CC(N)=O)NC(=O)[C@@H]1CCCN1C(=O)[C@H](CO)NC(=O)[C@H](CO)NC(=O)[C@H](Cc1c[nH]cn1)NC(=O)[C@H](CCCNC(=N)N)NC(=O)[C@H](CC(C)C)NC(=O)[C@H](Cc1ccccc1)NC(=O)[C@H](Cc1c[nH]cn1)NC(=O)[C@H](C)NC(=O)[C@H](CC(C)C)NC(=O)[C@H](CCCNC(=N)N)NC(=O)[C@H](CCC(N)=O)NC(=O)[C@@H](NC(=O)[C@H](C)NC(=O)[C@@H]1CSSC[C@H](NC(=O)[C@@H](N)CCCCNC(=O)COCCOCCNC(=O)CC[C@H](NC(=O)CCCCCCCCCCCCCCCCCCC(=O)O)C(=O)O)C(=O)N[C@@H](CC(N)=O)C(=O)N[C@@H]([C@@H](C)O)C(=O)N[C@@H](C)C(=O)N[C@@H]([C@@H](C)O)C(=O)N1)[C@@H](C)O)C(=O)N1CCC[C@H]1C(=O)N[C@@H](CO)C(=O)N[C@@H](CO)C(=O)N[C@H](C(=O)N[C@@H](CC(N)=O)C(=O)N[C@H](C(=O)NCC(=O)N1CCC[C@H]1C(=O)N[C@@H](CC(N)=O)C(=O)N[C@H](C(=O)N[C@@H](Cc1ccc(O)cc1)C(N)=O)[C@@H](C)O)C(C)C)[C@@H](C)O
notes: also called compound 68
B4: N^ε1-[2-[2-[2-[[(4S)-4-carboxy-4-(19-carboxynonadecanoylamino)butanoyl]amino]ethoxy]ethoxy]acetyl]-[Lys14,Arg17,Pro21,Pro27,Pro31]-h-amylin (peptide)
peptide: K([AEEA-γGlu-C20 diacid])CNTATCATQRLAKFLRHSSPNFGAIPSSTPVGSNTY-NH2
modifications: disulfide 2-7; N-terminus assumed
SMILES: CC[C@H](C)[C@H](NC(=O)[C@H](C)NC(=O)CNC(=O)[C@H](Cc1ccccc1)NC(=O)[C@H](CC(N)=O)NC(=O)[C@@H]1CCCN1C(=O)[C@H](CO)NC(=O)[C@H](CO)NC(=O)[C@H](Cc1c[nH]cn1)NC(=O)[C@H](CCCNC(=N)N)NC(=O)[C@H](CC(C)C)NC(=O)[C@H](Cc1ccccc1)NC(=O)[C@H](CCCCN)NC(=O)[C@H](C)NC(=O)[C@H](CC(C)C)NC(=O)[C@H](CCCNC(=N)N)NC(=O)[C@H](CCC(N)=O)NC(=O)[C@@H](NC(=O)[C@H](C)NC(=O)[C@@H]1CSSC[C@H](NC(=O)[C@@H](N)CCCCNC(=O)COCCOCCNC(=O)CC[C@H](NC(=O)CCCCCCCCCCCCCCCCCCC(=O)O)C(=O)O)C(=O)N[C@@H](CC(N)=O)C(=O)N[C@@H]([C@@H](C)O)C(=O)N[C@@H](C)C(=O)N[C@@H]([C@@H](C)O)C(=O)N1)[C@@H](C)O)C(=O)N1CCC[C@H]1C(=O)N[C@@H](CO)C(=O)N[C@@H](CO)C(=O)N[C@H](C(=O)N1CCC[C@H]1C(=O)N[C@H](C(=O)NCC(=O)N[C@@H](CO)C(=O)N[C@@H](CC(N)=O)C(=O)N[C@H](C(=O)N[C@@H](Cc1ccc(O)cc1)C(N)=O)[C@@H](C)O)C(C)C)[C@@H](C)O
notes: also called compound 74
B5: N^ε1-[2-[2-[2-[[(4S)-4-carboxy-4-(19-carboxynonadecanoylamino)butanoyl]amino]ethoxy]ethoxy]acetyl]-[His14,Arg17,Pro21,Pro27,His34]-h-amylin (peptide)
peptide: K([AEEA-γGlu-C20 diacid])CNTATCATQRLAHFLRHSSPNFGAIPSSTNVGHNTY-NH2
modifications: disulfide 2-7; N-terminus assumed
SMILES: CC[C@H](C)[C@H](NC(=O)[C@H](C)NC(=O)CNC(=O)[C@H](Cc1ccccc1)NC(=O)[C@H](CC(N)=O)NC(=O)[C@@H]1CCCN1C(=O)[C@H](CO)NC(=O)[C@H](CO)NC(=O)[C@H](Cc1c[nH]cn1)NC(=O)[C@H](CCCNC(=N)N)NC(=O)[C@H](CC(C)C)NC(=O)[C@H](Cc1ccccc1)NC(=O)[C@H](Cc1c[nH]cn1)NC(=O)[C@H](C)NC(=O)[C@H](CC(C)C)NC(=O)[C@H](CCCNC(=N)N)NC(=O)[C@H](CCC(N)=O)NC(=O)[C@@H](NC(=O)[C@H](C)NC(=O)[C@@H]1CSSC[C@H](NC(=O)[C@@H](N)CCCCNC(=O)COCCOCCNC(=O)CC[C@H](NC(=O)CCCCCCCCCCCCCCCCCCC(=O)O)C(=O)O)C(=O)N[C@@H](CC(N)=O)C(=O)N[C@@H]([C@@H](C)O)C(=O)N[C@@H](C)C(=O)N[C@@H]([C@@H](C)O)C(=O)N1)[C@@H](C)O)C(=O)N1CCC[C@H]1C(=O)N[C@@H](CO)C(=O)N[C@@H](CO)C(=O)N[C@H](C(=O)N[C@@H](CC(N)=O)C(=O)N[C@H](C(=O)NCC(=O)N[C@@H](Cc1c[nH]cn1)C(=O)N[C@@H](CC(N)=O)C(=O)N[C@H](C(=O)N[C@@H](Cc1ccc(O)cc1)C(N)=O)[C@@H](C)O)C(C)C)[C@@H](C)O
notes: also called compound 80

target: T1, human calcitonin receptor; assay: cell-based or functional assay

Question: Which “hCTR funct. EC50” value does the source give for B1 here?
Answer: 5.49 nM

Question: For B2, which “hCTR funct. EC50” value is on record?
Answer: 0.554 nM

Question: For B3, which “hCTR funct. EC50” value is on record?
Answer: 0.932 nM

Question: B4 was tested. Which “hCTR funct. EC50” value did it give?
Answer: 37.5 nM

Question: With B5 as the binder, how does the “hCTR funct. EC50” value read?
Answer: 2.14 nM
